Experimental findings from article PMC2094093 are described below.

This assay has as its target Human Hsp90β (human) (UniProt P08238). The assay can be described thus: SEC. A general note: In gel filtration, larger molecules generally elute earlier.

Human Hsp90β, P08238 1-724 (natural protein; other documents disagree on this pair), sequence (P08238 whole entry): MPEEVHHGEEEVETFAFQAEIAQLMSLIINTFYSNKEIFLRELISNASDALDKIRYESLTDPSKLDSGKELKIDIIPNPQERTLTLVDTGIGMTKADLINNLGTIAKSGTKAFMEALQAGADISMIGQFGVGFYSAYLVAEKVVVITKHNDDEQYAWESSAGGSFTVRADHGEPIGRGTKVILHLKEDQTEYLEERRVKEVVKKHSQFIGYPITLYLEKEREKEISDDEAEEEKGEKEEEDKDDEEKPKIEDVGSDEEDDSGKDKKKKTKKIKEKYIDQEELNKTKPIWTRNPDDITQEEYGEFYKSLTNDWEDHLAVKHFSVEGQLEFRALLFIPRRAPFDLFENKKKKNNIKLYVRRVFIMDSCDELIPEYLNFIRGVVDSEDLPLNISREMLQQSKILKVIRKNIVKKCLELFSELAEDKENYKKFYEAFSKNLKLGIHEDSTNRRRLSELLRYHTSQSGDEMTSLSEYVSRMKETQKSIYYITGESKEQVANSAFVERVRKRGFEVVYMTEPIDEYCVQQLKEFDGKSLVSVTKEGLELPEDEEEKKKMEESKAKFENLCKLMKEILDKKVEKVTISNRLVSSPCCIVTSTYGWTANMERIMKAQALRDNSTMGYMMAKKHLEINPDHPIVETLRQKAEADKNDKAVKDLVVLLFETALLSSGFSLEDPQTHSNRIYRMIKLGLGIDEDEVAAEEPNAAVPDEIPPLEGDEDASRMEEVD

“Human Hsp90β, P08238 1-724 (natural protein; other documents disagree on this pair)” registered a stoichiometry N of 2.

Broadly, the stoichiometry N is the number of molecules, sites or subunits per partner or assembly.
